B2: GLP (recombinant, full-length, untagged) (natural protein)
chain: MRSVEQQLSIVTEAAVAPEPVRIAIAEALGLMCAEEVQASRALPGFAQAAIDGYAVRAVDVGGEKSLSQQLPVAPPEKSLPVVGEVAAGSQQPLRLQPKQAVMVHTGAPLPMLADAVLPMAWSDRGRKRVTAQRPVRSGEFVRKEGDDIQPGDIAVSAGAVLGPAQIGLLAAVGRSKVLVYPRPRMSVISVGAELVDIDRQPGLGQVYDVNSYSLAAAGREAGADVYRYGIAAGEPRRIKEIIESQMLRSEIIVITGAVGGAGSAGVRQVLNELGDIDTERVAMHPGSVQGFGLLGENKIPCFLLPSNPVASLVIFETFVRPVVRMSLGKSNAARRVVRARALNHVVSVAGRKGFIRSRLMRDAETQDYLVEALGGATGAPSHLLAGLSEANGMIRIPEDVTEIRPGDVVDVIFLAQGR

Key:
[1] = target: Biotinylated His-GLPR (C. glutamicum ATCC 13032); test: BLI
[2] = target: B2; test: BLI
His-SUMO-FtsZ = target: T1, His-SUMO-FtsZ (C. glutamicum, UniProt P94337 1-442); test: BLI
T1 sequence: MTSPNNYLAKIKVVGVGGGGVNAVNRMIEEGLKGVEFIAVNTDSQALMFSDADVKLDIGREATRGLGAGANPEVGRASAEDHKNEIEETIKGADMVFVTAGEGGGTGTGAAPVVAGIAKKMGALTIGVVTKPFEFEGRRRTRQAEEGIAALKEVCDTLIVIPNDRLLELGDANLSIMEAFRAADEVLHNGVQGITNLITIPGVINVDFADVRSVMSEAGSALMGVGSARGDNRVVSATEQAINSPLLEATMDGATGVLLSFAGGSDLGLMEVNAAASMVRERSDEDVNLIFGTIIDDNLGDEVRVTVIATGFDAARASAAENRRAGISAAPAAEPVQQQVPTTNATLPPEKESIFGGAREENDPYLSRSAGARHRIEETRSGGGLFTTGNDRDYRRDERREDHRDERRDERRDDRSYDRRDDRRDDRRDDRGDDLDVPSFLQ

crystal structure = target: the molecule itself; test: crystal structure

## Wag31 (recombinant, full-length) (natural protein)
[1]
  Kd: 43.4 µM

## Wag31_(1–61) (N-terminal DivIVA domain of Wag31) (domain or fragment)
[1]
  Kd: 14.9 µM

B1: GLPR, C-terminal His-tagged (receptor)
chain: MLHVSGILVIGLIVVVWLVVLAPLLLRGQKPIAKAGEAFDDTRVISEGGSNIPSPRRPGLSSAQLDDEEDTDDVDDDYEIVDSPSIFRPRKEEPVEEDLDTDVELEEDIEVSLETDDYVEPAPVVEVSQEWNVEDHYELDDSYDTPLDHLHPAARARAYEDFQEHQPEQQPEVEEFDADDELTEEDVAFAQRRRGRGYYDPEADREFAASQYVRRQRTLLGLAATVVISVILGFVFGGWVWGLPAVALAATALYLMALRSQVREENALRARRIRRLRRSRMGVRNSEDLPSRLRRPGAVVLELDDESPDFEGLPTVAMPEEPYYEEPRRNIRHLGQRRVS
[2]
  Kd: 0.0055 µM

## B2
His-SUMO-FtsZ
  Kd: 4.7 µM
Crystal structure
  stoichiometry N: 2
